± gives the uncertainty stated by the source.

B1: Cullin-9, residues 2234 to 2275; numbered along this chain, Q8IWT3 (parent)
chain: KRCPSCQAPIEKNEGCLHMTCAKCNHGFCWRCLKSWKPNHKD

This data set covers variants of B1. The data set can be described thus: abundance fitness (aPCA) (normalised: wild type 0, dead -1); higher = more abundant; growth selection in yeast, the domain comes from the species named. Particulars: Homo sapiens.
Turning to S5C, the abundance fitness worked out at 0.137 ± 0.1.

Turning to C16N, the abundance fitness was determined as 0.23 ± 0.13. Consider C16F, for which the abundance fitness was -0.149 ± 0.15.

C16I: the abundance fitness amounted to 0.444 ± 0.16. For C16W, the abundance fitness is -0.121 ± 0.09. The same measure for C16P: 0.161 ± 0.098; for C16Q: 0.416 ± 0.091; for C16A: 0.329 ± 0.079.

With C16S, the abundance fitness turned out to be 0.422 ± 0.083. Turning to P9K, the abundance fitness is -0.349 ± 0.15. Consider P9F, for which the abundance fitness is -0.373 ± 0.21. P9T: the abundance fitness is -0.107 ± 0.12.

P9C: the abundance fitness was -0.074 ± 0.13. As for P9S, the abundance fitness was -0.347 ± 0.095. In the case of P9Q, the abundance fitness turned out to be 0.014 ± 0.1.

With P9D, the abundance fitness is -0.267 ± 0.42. To P9L belongs -0.39 ± 0.089; to P9N, -0.026 ± 0.26.

As to P9E, the abundance fitness came out at 0.051 ± 0.092. For the variant K41W, the abundance fitness was -0.646 ± 0.15. Regarding K41A, the abundance fitness was found to be 0.047 ± 0.081.

Turning to K41M, the abundance fitness was -0.373 ± 0.23. Regarding K41L, the abundance fitness is -0.295 ± 0.12. With K41R, the abundance fitness was -0.128 ± 0.094. Regarding C6L, the abundance fitness is -0.295 ± 0.12.

In the case of C6D, the abundance fitness is -0.091 ± 0.13. To C6E belongs -0.304 ± 0.11; to G27I, -0.083 ± 0.26; to G27R, 0.159 ± 0.074.

As to G27L, the abundance fitness was -0.457 ± 0.099. As to G27W, the abundance fitness was -0.005 ± 0.11.

As for M19Y, the abundance fitness is -0.803 ± 0.46. Consider M19V, for which the abundance fitness was 0.264 ± 0.076. Regarding M19F, the abundance fitness is -0.48 ± 0.22. M19R: the abundance fitness is -0.28 ± 0.08. The same measure for M19H: -0.405 ± 0.21; for H18V: -0.393 ± 0.099. In the case of H18T, the abundance fitness was -0.438 ± 0.12. Consider H18G, for which the abundance fitness was -0.216 ± 0.081.

For H18I, the abundance fitness is -0.155 ± 0.19.

As for W30K, the abundance fitness is -0.366 ± 0.15. Turning to W30L, the abundance fitness is -0.156 ± 0.083.

Turning to W30G, the abundance fitness is 0.162 ± 0.07. To R31P belongs -0.17 ± 0.12; to R31V, 0.128 ± 0.087; to R31N, 0.17 ± 0.17.

R31S: the abundance fitness is -0.065 ± 0.09.

With R31Q, the abundance fitness is 0.208 ± 0.11. In the case of L33D, the abundance fitness was -0.235 ± 0.13. Turning to L33T, the abundance fitness was -0.29 ± 0.099. Consider L33Q, for which the abundance fitness was -0.125 ± 0.099. As for L33S, the abundance fitness was -0.623 ± 0.11. On to L33K, for which the abundance fitness was -0.184 ± 0.16. On to L33C, for which the abundance fitness was -0.412 ± 0.13. Regarding L33P, the abundance fitness is -0.464 ± 0.12. To P4V belongs 0.117 ± 0.078; to P4K, -1.44 ± 0.33; to P4L, 0.065 ± 0.094. P4F: the abundance fitness came to 0.434 ± 0.21. The same measure for P4I: 0.013 ± 0.14.

With L17I, the abundance fitness was -0.267 ± 0.2. In the case of L17W, the abundance fitness was -0.169 ± 0.099.

Take L17S: the abundance fitness is -0.186 ± 0.12. In the case of L17P, the abundance fitness is -0.047 ± 0.12. For the variant R2W, the abundance fitness is -0.279 ± 0.11.

Consider R2E, for which the abundance fitness was 0.175 ± 0.1. As for R2L, the abundance fitness worked out at 0.227 ± 0.089. On to R2C, for which the abundance fitness came to 0.07 ± 0.18. The same measure for R2T: 0.147 ± 0.1; for R2M: 0.559 ± 0.11; for K12S: -0.112 ± 0.085. As to K12M, the abundance fitness was -0.22 ± 0.12. Consider K12L, for which the abundance fitness was -0.201 ± 0.081.

As for K12D, the abundance fitness is -0.248 ± 0.12.

In the case of K12T, the abundance fitness is -0.046 ± 0.095.

Turning to K12I, the abundance fitness was -0.492 ± 0.23. On to K34Q, for which the abundance fitness is -0.128 ± 0.18. Regarding K34H, the abundance fitness is -0.252 ± 0.15. Take K34L: the abundance fitness is -0.639 ± 0.099. For K34C, the abundance fitness was -0.341 ± 0.13.

Regarding K34N, the abundance fitness is -0.579 ± 0.23. The same measure for K34E: 0.045 ± 0.092. The same measure for K34D: -0.376 ± 0.24; for K34A: -0.431 ± 0.092. For the variant K34W, the abundance fitness is -0.765 ± 0.11. As to K34T, the abundance fitness is -0.313 ± 0.15. With K34F, the abundance fitness was -0.378 ± 0.18.

Take K34P: the abundance fitness was -0.363 ± 0.12. With K34M, the abundance fitness was -0.374 ± 0.13.

As to D42W, the abundance fitness is -0.692 ± 0.26. To D42E belongs -0.09 ± 0.13. On to D42R, for which the abundance fitness was -0.951 ± 0.2. The same measure for D42C: 0.214 ± 0.12; for H40W: -0.427 ± 0.094.

With H40E, the abundance fitness was found to be 0.182 ± 0.11.

Regarding H40V, the abundance fitness worked out at 0.006 ± 0.086. Regarding H40D, the abundance fitness came out at 0.111 ± 0.25. For the variant H40P, the abundance fitness was -0.091 ± 0.11. To C24D belongs -0.045 ± 0.14; to C24G, -0.268 ± 0.074.

Turning to C24E, the abundance fitness was -0.129 ± 0.088.

Turning to C24H, the abundance fitness was -0.382 ± 0.33.

For the variant C24L, the abundance fitness is -0.454 ± 0.093. With C24S, the abundance fitness was -0.384 ± 0.12.

For the variant T20M, the abundance fitness was -0.035 ± 0.12.

Regarding T20I, the abundance fitness is 0.196 ± 0.16. As to T20F, the abundance fitness was -0.462 ± 0.24. Consider T20C, for which the abundance fitness is -0.447 ± 0.13. The same measure for T20R: -0.143 ± 0.077.

T20H: the abundance fitness is -0.154 ± 0.15. The same measure for T20W: -0.172 ± 0.093; for C3R: -0.751 ± 0.089; for C3V: -0.348 ± 0.092. In the case of C3H, the abundance fitness is -0.249 ± 0.15. C3K: the abundance fitness is -0.658 ± 0.13. As for C3I, the abundance fitness was determined as 0.698 ± 0.13. In the case of F28P, the abundance fitness worked out at 0.048 ± 0.12. Consider F28H, for which the abundance fitness was 0.322 ± 0.16. As to F28M, the abundance fitness was -0.39 ± 0.14. To F28E belongs -0.074 ± 0.089; to F28V, -0.236 ± 0.096; to F28K, -0.288 ± 0.11.

For F28A, the abundance fitness was -0.173 ± 0.084.

Consider C29Y, for which the abundance fitness is -0.847 ± 0.21. The same measure for C29W: -1.17 ± 0.17; for C29Q: -0.563 ± 0.12.

Take C29F: the abundance fitness is -1.53 ± 0.46. As to N13E, the abundance fitness is -0.002 ± 0.1. For N13A, the abundance fitness is -0.071 ± 0.074.

Regarding N13F, the abundance fitness is -0.36 ± 0.17.

With N13T, the abundance fitness was found to be 0.185 ± 0.1.

Turning to N13M, the abundance fitness is -0.023 ± 0.097. On to N13W, for which the abundance fitness came to 0 ± 0.1.

As to N13Q, the abundance fitness is -0.044 ± 0.097.

Consider N13L, for which the abundance fitness worked out at 0.229 ± 0.092. As for N13K, the abundance fitness came out at 0.117 ± 0.11. Regarding N25C, the abundance fitness turned out to be 0.126 ± 0.12.

Take N25D: the abundance fitness was determined as 0.087 ± 0.12. For the variant N25F, the abundance fitness is -0.242 ± 0.16.

For the variant N25T, the abundance fitness is -0.106 ± 0.11. For N25I, the abundance fitness is -0.121 ± 0.22.

For A8N, the abundance fitness was 0.305 ± 0.22. The same measure for A8D: -0.284 ± 0.12; for A8S: -0.058 ± 0.085; for A8G: 0.023 ± 0.074.

Turning to A8K, the abundance fitness was -0.006 ± 0.13. For A8Q, the abundance fitness is 0.014 ± 0.11. A8Y: the abundance fitness is -0.005 ± 0.14.

With A8T, the abundance fitness was -0.027 ± 0.11. With C21N, the abundance fitness was -0.462 ± 0.21.

For C21V, the abundance fitness was -0.677 ± 0.095. Take C21W: the abundance fitness was -0.823 ± 0.12. To C21F belongs -0.917 ± 0.33; to C21G, -0.482 ± 0.078; to C21E, -0.137 ± 0.096.

With C21M, the abundance fitness is -0.962 ± 0.16. Consider C21I, for which the abundance fitness is -0.968 ± 0.25. As to C21R, the abundance fitness is -0.866 ± 0.094.

Regarding C21P, the abundance fitness was -0.612 ± 0.12. The same measure for N39Q: -0.152 ± 0.11; for N39S: 0.001 ± 0.12; for N39C: -0.093 ± 0.15. Consider N39G, for which the abundance fitness amounted to 0.203 ± 0.073. G15C: the abundance fitness is -0.113 ± 0.33. With G15A, the abundance fitness was -0.003 ± 0.1.

On to G15K, for which the abundance fitness was -0.294 ± 0.15.

Turning to G15L, the abundance fitness is -0.515 ± 0.17.
